From the supplement of paper PMC7877785
± gives the uncertainty stated by the source.

Assay: self-splicing fitness, log relative to wild type (ln ratio); higher = more splicing; Tetrahymena group I intron in knt gene, E. coli kanamycin selection, DiMSum; sequences stand for … in CUCUCU…GGAGGGAAAAGUUAUCAGGCAUGCACCUGGUAGCUAGUCUUUAAACCAAUAGAUUGCAUCGGUUUAAAAGGCAAGACCGUCAAAUUGCGGGAAAGGGGUCAACAGCCGUUCAGUACCAAGUCUCAGGGGAAACUUUGAGAUGGCCUUGCAAAGGGUAUGGUAAUAAGCUGACGGACAUGGUCCUAACCACGCAGCCAAGUCCUAAGUCAACAGAUCUUCUGUUGAUAUGGAUGCAGUUCACAGACUAAAUGUCGGUCGGGGAAGAUGUAUUCUUCUCAUAAGAUAUAGUCGGACCUCUCCUUAAUGGGAGCUAGCGGAUGAAGUGAUGCAACACUGGAGCCGCUGGGAACUAAUUUGUAUGCGAAAGUAUAUUGAUUAGUUUUGGAGUACUCGUGGUCG
Procedure, shortened: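 The eight P1ex-region nucleotides of an intron in the knt kanamycin-resistance gene on pET-22b(+) were all randomised and the library put into E. coli BL21(DE3). Six replicate transformations were grown overnight at 37°C or 30°C on LB agar with or without 25 μg/mL kanamycin, together with 100 μg/mL carbenicillin, 50 μM IPTG and 0.2% rhamnose. Colonies were pooled and amplicon-sequenced on an Illumina HiSeq 2500. Fitness from DiMSum is the error-weighted combination of wild-type-normalised replicate fold changes, kanamycin over none.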

| Sequence | self-splicing fitness (ln) (30 °C) | self-splicing fitness (ln) (37 °C) |
| --- | --- | --- |
| GGAAAGCAAUAUUACGGCCA | -0.368 ± 0.081 | -0.0522 ± 0.1 |
| AGUCAGCAAUAUUACGAGGC | -2.81 ± 0.31 | -0.606 ± 0.31 |
| UCAUAGCAAUAUUACGAUGA | -2.65 ± 0.18 | -0.815 ± 0.11 |
| GACCAGCAAUAUUACGGAGG | -2.04 ± 0.068 | -0.681 ± 0.07 |
| UUGCAGCAAUAUUACGAUAU | -4.06 ± 0.32 | -1.78 ± 0.24 |
| GCUUAGCAAUAUUACGCCGG | -1.97 ± 0.2 | -1.44 ± 0.22 |
| AAUGAGCAAUAUUACGCAAC | -2.46 ± 0.22 | -2.51 ± 0.44 |
| GAGGAGCAAUAUUACGAAGA | -2.19 ± 0.24 | -1.95 ± 0.32 |
| ACCUAGCAAUAUUACGGGAC | -1.87 ± 0.17 | -1.36 ± 0.18 |
| GGAAAGCAAUAUUACGAAAG | -4.01 ± 0.35 | -3.08 ± 0.35 |
| GGCGAGCAAUAUUACGAGGG | -0.768 ± 0.24 |  |
| UCCUAGCAAUAUUACGUGAG | -2.64 ± 0.14 | -1.94 ± 0.17 |
| ACGCAGCAAUAUUACGUCAA | -3.09 ± 0.2 | -2.57 ± 0.15 |
| CCCCAGCAAUAUUACGACAU | -3.936 ± 0.02 | -2.94 ± 0.037 |
| ACACAGCAAUAUUACGCUCC | -1.47 ± 0.078 | -0.566 ± 0.1 |
| GCAUAGCAAUAUUACGAGGA | -2.47 ± 0.32 | -2.21 ± 0.22 |
| UUCUAGCAAUAUUACGACUG | -1.64 ± 0.17 | -0.702 ± 0.2 |
| GAUAAGCAAUAUUACGACCU | -0.864 ± 0.086 | 0.36 ± 0.1 |
| UGAAAGCAAUAUUACGGUCU | -0.0503 ± 0.077 | -0.209 ± 0.085 |
| GCUGAGCAAUAUUACGUGGA | -2.09 ± 0.19 | -2.9 ± 0.31 |
| CACCAGCAAUAUUACGGUUC | -2.02 ± 0.065 | -1.25 ± 0.085 |
| GACUAGCAAUAUUACGUUGG | -2.85 ± 0.22 | -2.42 ± 0.39 |
| GGGAAGCAAUAUUACGCAGA | -3.81 ± 0.42 | -1.65 ± 0.27 |
| GGGCAGCAAUAUUACGGAUA | -2.63 ± 0.17 | -1.8 ± 0.13 |
| AACAAGCAAUAUUACGUGAG | -1.74 ± 0.05 | -1.01 ± 0.067 |

| Sequence | self-splicing fitness (ln) (30 °C) | self-splicing fitness (ln) (37 °C) |
| --- | --- | --- |
| GCGAAGCAAUAUUACGUUGG | -4.02 ± 0.17 | -2.97 ± 0.18 |
| GAAUAGCAAUAUUACGGGAA | -2.97 ± 0.19 | -0.92 ± 0.1 |
| UGCCAGCAAUAUUACGGAGG | -3.51 ± 0.17 | -1.83 ± 0.17 |
| UGUAAGCAAUAUUACGUGCU | -1.48 ± 0.13 | -0.148 ± 0.16 |
| CGAAAGCAAUAUUACGGACG | -2.73 ± 0.21 | -2.25 ± 0.22 |
| CCCCAGCAAUAUUACGCGAG | -3.18 ± 0.15 | -3.14 ± 0.31 |
| GCCAAGCAAUAUUACGCGAU | -3.73 ± 0.14 | -2.64 ± 0.18 |
| AUCUAGCAAUAUUACGAAAA |  | -2.38 ± 0.33 |
| GGGCAGCAAUAUUACGAAUC | -0.438 ± 0.15 | -0.491 ± 0.21 |
| UGUGAGCAAUAUUACGAGCG | -1.29 ± 0.12 | -0.066 ± 0.12 |
| UGACAGCAAUAUUACGCCAU | -3.25 ± 0.29 | -1.51 ± 0.26 |
| AGGGAGCAAUAUUACGGGUC | -4.05 ± 0.3 | -3.12 ± 0.22 |
| UUAAAGCAAUAUUACGGUCC |  | -1.2 ± 0.36 |
| GCGUAGCAAUAUUACGUGGG | -3.84 ± 0.22 | -3.04 ± 0.24 |
| GUGAAGCAAUAUUACGUGCG | -0.0545 ± 0.077 | 0.038 ± 0.094 |
| AAAUAGCAAUAUUACGACCC | -0.239 ± 0.16 | -0.544 ± 0.23 |
| CUCGAGCAAUAUUACGUCUA | -1.79 ± 0.24 | -2.43 ± 0.31 |
| CAAAAGCAAUAUUACGACUU | -1.83 ± 0.098 | -0.224 ± 0.098 |
| AGGUAGCAAUAUUACGUCCG | -0.127 ± 0.017 | 0.055 ± 0.036 |
| AAUUAGCAAUAUUACGCGAU | -3.62 ± 0.32 | -2.31 ± 0.23 |
| GUAGAGCAAUAUUACGAUCG | -2.6 ± 0.15 | -0.951 ± 0.17 |
| CGAAAGCAAUAUUACGUGUG | -0.273 ± 0.054 | 0.27 ± 0.066 |
| ACAUAGCAAUAUUACGCCGA | -1.38 ± 0.19 | -0.864 ± 0.18 |
| GCAUAGCAAUAUUACGCCUU |  | -1.42 ± 0.21 |
| GUGGAGCAAUAUUACGUUUC | -3.39 ± 0.37 | -1.9 ± 0.21 |

| Sequence | self-splicing fitness (ln) (30 °C) | self-splicing fitness (ln) (37 °C) |
| --- | --- | --- |
| AACGAGCAAUAUUACGACGC | -2 ± 0.14 | -0.785 ± 0.18 |
| UCUAAGCAAUAUUACGCAAC | -3.54 ± 0.17 | -1.32 ± 0.2 |
| GAUGAGCAAUAUUACGUCUU | -1.41 ± 0.12 | -0.691 ± 0.12 |
| GCCCAGCAAUAUUACGACAC | -1.64 ± 0.081 | -0.294 ± 0.11 |
| CACUAGCAAUAUUACGAUAC | -3.41 ± 0.28 | -2.81 ± 0.38 |
| UGUUAGCAAUAUUACGAUCG | -0.427 ± 0.26 | -0.0339 ± 0.28 |
| UUUGAGCAAUAUUACGAUUU | -3.28 ± 0.24 | -2.05 ± 0.27 |
| ACGGAGCAAUAUUACGCUCA | -1.04 ± 0.19 | -0.0662 ± 0.3 |
| CCGCAGCAAUAUUACGGUGC | -2.98 ± 0.18 | -2.63 ± 0.22 |
| GGACAGCAAUAUUACGCGCG | 0.181 ± 0.094 | -0.742 ± 0.11 |
| UGUUAGCAAUAUUACGGGUC | -2.97 ± 0.44 | -1.53 ± 0.3 |
| ACCGAGCAAUAUUACGAAUU | -4.54 ± 0.39 | -1.89 ± 0.21 |
| CGUGAGCAAUAUUACGAGAG | -2.29 ± 0.25 | -2.64 ± 0.36 |
| GCAUAGCAAUAUUACGAAUA | -2.07 ± 0.17 | -1.38 ± 0.19 |
| GGUAAGCAAUAUUACGGAAG | -3.03 ± 0.18 | -2.56 ± 0.26 |
| UUAUAGCAAUAUUACGGCAG | -0.689 ± 0.094 | -0.0118 ± 0.13 |
| CGCCAGCAAUAUUACGAAAA | -3.4 ± 0.29 | -2.7 ± 0.2 |
| AGCCAGCAAUAUUACGGUCU | -3.08 ± 0.18 | -2.51 ± 0.18 |
| UUGUAGCAAUAUUACGUAAG | -2.25 ± 0.17 | -1.02 ± 0.16 |
| UGCGAGCAAUAUUACGUCAU | -4.84 ± 0.46 | -2.95 ± 0.23 |
| AGGCAGCAAUAUUACGUGGG | -2.95 ± 0.095 | -2.97 ± 0.15 |
| UACAAGCAAUAUUACGUAGU | -3.88 ± 0.17 | -2.18 ± 0.15 |
| ACGCAGCAAUAUUACGCCGC | -3.68 ± 0.29 | -2.42 ± 0.25 |
| CGCAAGCAAUAUUACGGAGU | -3.16 ± 0.2 | -1.68 ± 0.18 |
| CGGGAGCAAUAUUACGCAUG | -2.83 ± 0.29 | -0.773 ± 0.21 |

| Sequence | self-splicing fitness (ln) (30 °C) | self-splicing fitness (ln) (37 °C) |
| --- | --- | --- |
| GGCUAGCAAUAUUACGAAUG | -2.26 ± 0.14 | -1.01 ± 0.14 |
| CGGCAGCAAUAUUACGCUCG |  | -2.93 ± 0.32 |
| ACAUAGCAAUAUUACGUUUG | -2.83 ± 0.12 | -2.51 ± 0.15 |
| AUAUAGCAAUAUUACGAAUU | -2.52 ± 0.16 | -0.909 ± 0.14 |
| UUAGAGCAAUAUUACGGGCA | -2.25 ± 0.12 | -1.54 ± 0.18 |
| AGCCAGCAAUAUUACGUCUC | -3.95 ± 0.37 | -2.78 ± 0.27 |
| UCUUAGCAAUAUUACGUUCA | -2.92 ± 0.14 | -1.85 ± 0.11 |
| AGGGAGCAAUAUUACGUGUG | -2.78 ± 0.17 | -3.07 ± 0.26 |
| AAACAGCAAUAUUACGGACG | -2.25 ± 0.087 | -0.676 ± 0.097 |
| GCCGAGCAAUAUUACGACGG | -3.78 ± 0.23 | -2.76 ± 0.28 |
| GAGUAGCAAUAUUACGCCGU |  | -1.08 ± 0.27 |
| GAGCAGCAAUAUUACGGAAG | -3.65 ± 0.21 | -3.24 ± 0.26 |
| GGGCAGCAAUAUUACGAGUG | -3.47 ± 0.24 | -1.64 ± 0.13 |
| UUCCAGCAAUAUUACGCGCC | -2.72 ± 0.24 | -0.4 ± 0.21 |
| GUGCAGCAAUAUUACGGACC | -0.711 ± 0.31 |  |
| AUGGAGCAAUAUUACGGAGA | -2.93 ± 0.44 | -1.21 ± 0.32 |
| CUCAAGCAAUAUUACGAGUC | -3.49 ± 0.21 | -3.23 ± 0.47 |
| UGAGAGCAAUAUUACGGCGA | -3.53 ± 0.34 | -0.434 ± 0.23 |
| AUGUAGCAAUAUUACGCACU | -0.786 ± 0.099 | 0.708 ± 0.14 |
| GCAUAGCAAUAUUACGAUAU | -1.9 ± 0.084 | 0.148 ± 0.09 |
| UGACAGCAAUAUUACGGGUA | -1.07 ± 0.055 | -0.216 ± 0.062 |
| CAGUAGCAAUAUUACGUACU | -1.78 ± 0.12 | -1.3 ± 0.1 |
